Laboratory results published in US20220185900A1.
Substitutions are numbered along the chain they refer to.

B1: H4H8085P (antibody, human IgG4, V domains shown)
VH: QVQLVESGGGVVQPGRSLRLSCTASGFTFDNYGMHWVRQAPGKGLEWVAVISYDGSNTFYADSVKGRFTISRDNSKNALYLQMNSLRAEDTAVYYCAKDLEFDILIGYPFDSWGRGTLVTVSS
VL: DIQLTQSPSFLSASVGDRVTITCWASQDISRYLAWYQQKPGKAPNLLIYAASTLQSGVPSRFSGSGSGTEFTLTINSLQPEDFATYYCQQLFSYPRTFGQGTKVEIK
B2: H4H8084P (antibody, human IgG4, V domains shown)
VH: QVQLVESGGGVVQPGRSLRLSCEASGFTFRNYGMHWVRQAPGKGLDWVSTIYYDGSDEYYSDSVKGRFTISRDNSKNTLYLQMNSLRAEDTAVYYCARDPPSFRYFDYWGQGTLVTVSS
VL: DIQMTQSPSTLSASVGDRVTITCRASQSIRSWLTWYQQKPGKAPKVLIYKASTLERGVPSRFSGSGSGTEFTLTISSLQPEDFATYYCHQYSSYSYTFGQGTKLEIK
B3: H4H8056P (antibody, human IgG4, V domains shown)
VH: QVQLVESGGGVVQPGRSLRLSCAASGFTFRNYGMHWVRQAPGKGLEWVAVKRYDGSDEYFVDSVKGRFTISRDNSKNTLFLQMNSLRVDDTAVYYCARETPITGTTLDYWGQGTLVTVSS
VL: DIQMTQSPSSLSASVGDRVTITCRTSQSITNYLNWYQQKPGKAPKLLIYAASRSQSGVPSRFSGSGSGTDFTLTISSLQPEDFATYYCQQSYSTPLTFGGGTKVEIK
B4: H4H8058P (antibody, human IgG4, V domains shown)
VH: QVQLVESGGGVGQPGRSLRLSCVASGFTFRNYGMHWVRQAPGKGLDWVAIIGYDGSKEYNVDSVKGRFTISRDNSKNTLYLQMNSLGAEDTAIYYCARESPITGTTFDYWGQGTLVTVSS
VL: B3 VL with S9P, T25A, T30G, L46I, S54L
B5: H4H8080P (antibody, human IgG4, V domains shown)
VH: EVQLVESGGGLVQSGGSLRLSCVASGFTFSTYAMTWVRQAPGRGLEWVSAISGSGASTYYADSLKGRFTVSRDNSKNTLYLQMNSLRAEDTAVYYCSKDHRNYDSDYDMDVWGQGTTVTVSS
VL: DIQMTQSPSSLSASVGDRVTITCRASQGIRNYLGWYQQKPGKAPKRLIYTASSLQSGVPSRFRGSGSGTEFTLTISSLQPEDFATYYCLQHNSYPYTFGQGTKLEIK
B6: H4H8079P (antibody, human IgG4, V domains shown)
VH: EVQLVESGGGLVKPGGSLRLSCAASGFTFSNAWMSWVRQAPGKGLEWVGRIKSKTDGGTSEYAAPVKGRFTISRDDSKNTLFLQMNSLKSEDAAVYYCTTGRSWSDYFDFWGQGTLVTVSS
VL: not shown
B7: H4H8067P (antibody, human IgG4, V domains shown)
VH: QVQLVESGGGVVQPGRSLRLSCVASGFTFSNYGMHWVRQAPGKGLEWVALIWYDGSNKYFADSVKGRFTISRDNSKRMMFLEMNSLRAEDTAIYYCTRDRLFDFWGQGTLVTVSS
VL: AIQMTQSPSSLSASVGDRVSITCRASQDIRHDLGWFHQKPGKAPKLLIYAASTLQSGVPSRFGGSGSGTDFTLTITSLQPEDFGTYYCLQDYNYPATFGQGTRLEIK
B8: H4H8045P (antibody, human IgG4, V domains shown)
VH: EVQLVESGGALVQPGGSLRLSCAASGFTFSNYAMTWVRQAPGMGLEWVSGISSSGASTFYADSVKGRFTISRDNSKNTLYLQMNSLRAEDTAVYYCAKEDYWGWFDYWGQGTLVTVSS
VL: DIQLTQSPSFLSASVGDRVTITCWASQDVSSYLAWYQQEPGKAPKVLIYDASTLQSGVPSRFSGSGSGTEFTLTISSLQPEDFAPYYCQQLNSYPYTFGQGTKLEIK
B9: H4H8071P (antibody, human IgG4, V domains shown)
VH: EVQLVESGGGLVQPGGSLRLSCAASGFTFTTYFMSWVRQAPGKGLEWVSGISGSGTSTFYVDSMKGRFTISRDNSKNTLYLQMNSLRVEDTAVYFCAKENTYGHFDFWGQGTLVTVSS
VL: B8 VL with V29I, Y32H, E39K, F62I, P85A, N92D, S93G
B10: H4H8062P (antibody, human IgG4, V domains shown)
VH: EVQLVESGGGLVQPGGSLRLSCSVSGFIFKNYAMRWVRQAPGKGLEWVSGISGSGGITYYADSVRGRVTISRDNSKNTLDLQMTNLRAEDTAVYYCAKAEYSSSGAYFDYWGQGTLVTVSS
VL: DIQMTQSPSSLSASVGDRVTITCRASQSIHNYLNWYLQRPGKAPKLLVYAASSLQSGVPSRFSGRGSGTDFTLTISSLQPEDFATYYCQQSYSAPYSFGQGTKLEIK
B11: H4H8060P (antibody, human IgG4, V domains shown)
VH: QVTLKESGPVLVKPTETLTLTCTVSGFSLSSARMGVSWIRQPPGKALEWLAHIFSTDEKSYSTSLKSRLSISKDTSLSQVVLIMTNMDPVDTATYYCARRTTMAPYYYYYGMDVWGHGTTVTVSS
VL: AIQMTQSPASLSASVGDRVTITCRASQGIRNDLGWYQQKPGKAPKLLISAASSLQSGVPSRFSGSGSGTDFTLTISSLQPEDFATYYCLQDYKYPWTFGQGTKVEIK
B12: H4H8076P (antibody, human IgG4, V domains shown)
VH: QVQLQQSGPGLVKPSQTLSLTCAISGDSVSSNSVAWNWIRQSPSRGLEWLGRTYYRSNWYNTYAVSVKSRITIDPDTSKNQFSLQLNSVTPEDTALYYCARGHRYSGSYFDYWGQGTLVTVSS
VL: DIQMTQSPSSLSASVGDRVTITCRASQNINSYFNWYQQKPGKAPKLLIYAASSLQSGVPSRFSGGGSGTDFTLTISSLQPEDFATYYCQQTYTIPWTFGQGTKVEIK
B13: H4H8046P (antibody, human IgG4, V domains shown)
VH: QVQLVQSRDEVKKPGASVKVSCKASGYTFTTYGISWVRQAPGQGLEWMGWINTYNGDTNYAQKVQDRVIMTTDTSTSTAYMELRSLRSDDTAVYFCAGARPLGGRRAFDIWGQGTMVTVSS
VL: DIQMTQSPSSLSASVGDRVTITCRASQGISHYLAWYQQKPGKVPKLLIYAASTLQSGVPSRFSGSGSGTDFTLTISSLQPEDVATYYCQKYNSVPWTFGQGTKVEIK
B14: H4H8083P (antibody, human IgG4, V domains shown)
VH: QVQLVESGGGVVQPGRSLRLSCAASGFTFNNYVMHWVRQAPGKGLEWVALIWYDGSNKYYADSVKGRFTISRDNSKNALNLQMNSLRAEDTAVYFCARVSIAARNYYYGGLDVWGQGTTVTVSS
VL: EIVLTQSPGTLSLSPGERATLSCRASQSVSSTYLAWYQQKPGQAPRLLIYGASSRATGIPDRFSGSGSGTDFTLTISRLEPEDFAVYYCQHYGGSPLTFGGGTKVEIK
B15: H2M7086N (antibody, mouse IgG2, V domains shown)
VH: QVQLVESGGGVVQPGRSLRLSCVVSGFTFSNYGMHWVRQGPGRGLEWLALIWYDGSDKYYAESVRGRFTISRDNSKNTVYLQMNSLRAEDTAMYYCTRDRIFDYWGQGTLVTVSS
VL: AIQMTQSPSSLSASVGDRVTITCRASQDIRNDLGWYQHNPGKAPNLLIYAASTLQIGVPSRFRGSGSGTDFTLTISSLQPEDFATYYCLQDFDYPLSFGGGTKVEIR
B16: H4H8066P (antibody, human IgG4, V domains shown)
VH: EVQLVESGGGLVQPGGSLRLSCEASGFTFSRYAMTWVRQAPGKGLEWVSGISGSGGSTFYVDSLQGRFTLSRDNSKHTLFLQMNSLRAEDTAIYYCAKENTYGHFDYWGQGTLVTVSS
VL: DIQLTQSPSFLSASVGDRVTITCWASQDISTYLAWYQQKPGKAPQVLIYAASSLQYGVPSRFSGSGSGTEFTLTITSLQPEDFATYYCQQLIGYPYIFGQGTKLEIK
B17: H4H8087P (antibody, human IgG4, V domains shown)
VH: QVQLVESGGGVVQPGRSLRLSCAASGFSFSSYGMHWVRQAPGKGLEWVAVMWYDGSNEYYADSVKGRFIISRDNSKSTLYLEMNSLRAEDTALYYCAREDWDEGYYYGMDVWGQGTTVTVSS
VL: DIQMTQSPSSLFASVGDRVTITCRASQDIRYDLGWYQQKPGKAPKRLIYASSILESGVPSRFSGSGSGTEYTLTISTLQSEDFAIYYCLQHNSFPWTFGQGTKVEIK

Molecular target: human RET on cells (MCF7/SRE-Luc; HEK293/hGFRα3/hRET/SRE-Luc; HEK293/hGFRα1/hRET/SRE-Luc) (human), P07949
Experiment: cell-based or functional assay

Compared with B1, B2 is higher in 293/hGFRα3/hRET SRE-luc % Blocking: 72% for the first, 94% for the second.

Compared with B5, B6 is higher in 293/hGFRα3/hRET SRE-luc % Blocking: 57% for the first, 96% for the second.

First: B7
Second: B8
The 293/hGFRα3/hRET SRE-luc % Blocking of the first is higher: 99% for the first, 96% for the second.

Going from B13 to B14, the 293/hGFRα3/hRET SRE-luc % Blocking falls from 91% to 81%.

First: B15
Second: B16
The 293/hGFRα3/hRET SRE-luc % Blocking of the first is higher: 98% for the first, 93% for the second.

Binder B17 has a 293/hGFRα3/hRET SRE-luc % Blocking of 100%.

First: B1
Second: B2
The 293/hGFRα3/hRET/SRE-Luc IC50 of the first is 60-fold higher: 127 nM for the first, 2.1 nM for the second.

First: B5
Second: B6
The 293/hGFRα3/hRET/SRE-Luc IC50 of the first is 430-fold higher: 341 nM for the first, 0.8 nM for the second.

Going from B7 to B8, the 293/hGFRα3/hRET/SRE-Luc IC50 falls from 4.8 nM to 0.42 nM (11-fold).

Going from B13 to B14, the 293/hGFRα3/hRET/SRE-Luc IC50 rises from 11.8 nM to 57 nM (4.8-fold).

First: B15
Second: B16
The 293/hGFRα3/hRET/SRE-Luc IC50 of the first is 2.7-fold higher: 4 nM for the first, 1.5 nM for the second.

With B17 the 293/hGFRα3/hRET/SRE-Luc IC50 was 0.25 nM.

Going from B1 to B2, the MCF7/SRE-Luc % Activation falls from 47% to 0%.

B3 and B4 are the same in MCF7/SRE-Luc % Activation: 0% for the first, 0% for the second.

B5 and B6 are the same in MCF7/SRE-Luc % Activation: 0% for the first, 0% for the second.

B7 and B8 are the same in MCF7/SRE-Luc % Activation: 0% for the first, 0% for the second.

B9 and B10 are the same in MCF7/SRE-Luc % Activation: 0% for the first, 0% for the second.

Going from B11 to B12, the MCF7/SRE-Luc % Activation rises from 0% to 3%.

Going from B13 to B14, the MCF7/SRE-Luc % Activation falls from 5% to 0%.

B15 and B16 are the same in MCF7/SRE-Luc % Activation: 0% for the first, 0% for the second.

B17 gave an MCF7/SRE-Luc % Activation of 0%.

Compared with B1, B2 is higher in MCF7/SRE-Luc Avg % Blocking: 0% for the first, 100% for the second.

First: B3
Second: B4
The MCF7/SRE-Luc Avg % Blocking of the first is lower: 73% for the first, 85% for the second.

Compared with B5, B6 is higher in MCF7/SRE-Luc Avg % Blocking: 41% for the first, 90% for the second.

Compared with B7, B8 is lower in MCF7/SRE-Luc Avg % Blocking: 91% for the first, 69% for the second.

Going from B9 to B10, the MCF7/SRE-Luc Avg % Blocking rises from 84% to 100%.

Compared with B11, B12 is lower in MCF7/SRE-Luc Avg % Blocking: 87% for the first, 74% for the second.

First: B13
Second: B14
The MCF7/SRE-Luc Avg % Blocking of the first is higher: 78% for the first, 68% for the second.

Compared with B15, B16 is lower in MCF7/SRE-Luc Avg % Blocking: 100% for the first, 60% for the second.

In the case of B17, the MCF7/SRE-Luc Avg % Blocking is reported as 100%.

Work on B1 yielded a luciferase activity in MCF7/SRE-Luc, % of the levels observed with GDNF of 50%.

First: B2
Second: B3
The MCF7/SRE-luc Avg. IC50 of the first is 5.2-fold higher: 10.4 nM for the first, 2 nM for the second.

Going from B4 to B5, the MCF7/SRE-luc Avg. IC50 rises from 5.4 nM to greater than 100 nM.

First: B6
Second: B7
The MCF7/SRE-luc Avg. IC50 of the first is 25-fold lower: 0.15 nM for the first, 3.8 nM for the second.

Compared with B8, B9 is 3.2-fold higher in MCF7/SRE-luc Avg. IC50: 0.14 nM for the first, 0.45 nM for the second.

Going from B10 to B11, the MCF7/SRE-luc Avg. IC50 rises from 5.2 nM to greater than 100 nM.

B12 and B13 are within 1.5-fold of each other in MCF7/SRE-luc Avg. IC50: 55.7 nM for the first, 44 nM for the second.

Compared with B14, B15 is lower in MCF7/SRE-luc Avg. IC50: greater than 100 nM for the first, 2.6 nM for the second.

Going from B16 to B17, the MCF7/SRE-luc Avg. IC50 falls from 0.39 nM to 0.25 nM (1.6-fold).

Compared with B4, B6 is higher in Internalization (% H4H8087P), HEK293/hGFRa1/hRET/SRE-Luc cells, 37 C: 42% for the first, 62.8% for the second.

Compared with B7, B10 is lower in Internalization (% H4H8087P), HEK293/hGFRa1/hRET/SRE-Luc cells, 37 C: 58.2% for the first, 44.9% for the second.

Work on B17 yielded an Internalization (% H4H8087P), HEK293/hGFRa1/hRET/SRE-Luc cells, 37 C of 100%.
